Data: US20050222387A1, “Smac-peptides as therapeutics against cancer and autoimmune diseases” (Deutsches Krebsforschungzentrum Stiftung Des Oeffentlichen …, priority 2002, published 2005)

Experiment: Neurotoxicity by compound neurological score in the glioblastoma model
Format: in vivo, athymic mice
Conditions: TRAIL alone, local administration
Protocol: Animal studies. 5×10^4 U87MG human glioblastoma cells were stereotactically implanted into the right striatum of athymic mice (CD1 nu/nu, Charles River, Sulzfeld, Germany). At day 7 or at day 7 and day 9, mice were locally treated with Apo2L/TRAIL (2 μg/4 μl buffer) and/or Smac (1 mg/4 μl buffer) or buffer only. Tumor cell volumes were measured at day 21 or 35 after tumor cell implantation as previously described. Neurological symptoms (alertness, behaviour, weight loss, focal neurological deficits) were evaluated daily and a compound score of all categories was formed (++: severe deficits, +: deficits, −: no relevant deficits). Statistical significance was assessed using ANOVA.

Substance: TRAIL: TNF-related apoptosis inducing ligand, death receptor ligand; recombinant human TRAIL (PeproTech)
- mice that developed neurological deficits: 2 of 6
